Substitutions are numbered along the chain they refer to. Names and notes keep the numbering of the source.

In general, Km refers to the substrate concentration at which the rate is half of its maximum. A word on the kcat: it is the maximal rate divided by the concentration of active sites.

Type in all cases: biochemical
The subject of data set [1] is Aβ1–40 or 1–42 and eight off-target peptides. Description: High-throughput fluorescence polarisation screen of NEP variants. The note with it: high throughput screening, relative to wild-type. On the procedure: To screen NEP variants for improved activity on and specificity towards Aβ a high-throughput assay was developed where cleavage activity on Aβ1–40 or 1–42 and eight off-target peptides (see Table S1) was determined by fluorescence polarisation. Peptide substrates were labelled with DY-505 or DY-647 at the N-terminus and biotin at the C-terminus. The biotin serves for increasing the molecular size of uncleaved peptides after addition of strepavidin, thereby increasing the assay window and measurable signals. Peptide cleavage assays were performed by incubating NEP variant samples in a microtitre plate containing assay solution composed of 60 nM peptide substrate in 50 mM HEPES (pH 7.4) containing 150 mM NaCl and 0.05% Pluronic F-68 (Sigma). […] The extent of peptide cleavage was determined by measuring the fluorescence polaristion of the stopped reactions on a plate reader (Tecan) with an appropriate set up of polarisation filters. […]
To rank these variants the change in activity on the Aβ1–40 peptide was divided by the average change in specificity on the other peptides and then by the specificity of the wild-type enzyme. […] At many other positions only a single amino acid substitution was detected as having improved specificity, and some of these provided the largest gains observed. […]
In general terms: Polarisation of emitted light reports the rotation of a fluorescent probe.

In the next data set the test system is Angiotensin. Description: Steady-state kinetics of peptide cleavage, fluorescence polarisation. The note with it: substrate Angiotensin; for Km / kcat: 37°C, pH 7.4; for Fold change in kcat/KM: ratio of wild-type NEP kcat/KM to that of the mutant. The method, then:
(§1) For detailed kinetic characterisation of peptide cleavage by NEP, a similar assay to that above was used with modifications based on a published method. Peptides were synthesised by Bachem using 9-fluorenylmethyloxycarbonyl solid-phase peptide synthesis and were labelled with a N-terminal 5(6)FAM via a ε-aminocaproic acid linker and a C-terminal biotin via a lysine linker (Table S1). Purified peptides were supplied as trifluoroacetate salts with a purity ≥95%. The assay was performed in a 96-well microtitre plate and contained 50 mM HEPES (pH 7.4), 100 mM NaCl, 0.05% (w/v) BSA (Buffer A), 1–200 µM peptide substrate and 1–500 nM NEP protein. Reactions were incubated at 37°C before being stopped at various time points between 2 and 360 min by transferring 5 µL aliquots to 245 µL Buffer A containing 2 mM 1,10-phenanethroline (Sigma) and 2 µM avidin (Invitrogen). For peptide substrates containing disulphide bonds, 1 mM tris(2-carboxyethyl)phosphine (Thermo Scientific) was added to the stop solution. The fluorescence polarisation of the resulting solution was measured on a Victor plate reader and the amount of substrate cleaved was determined with reference to substrate-only controls with and without avidin. Initial rates were obtained by linear regression of the linear regions of time courses. Enzyme velocity was plotted as a function of substrate concentration and the Michaelis-Menten equation was used to fit the data, giving the parameters kcat and KM.

In a further data set the test system is Aβ1–40. Described as above. The note with it: for Km / kcat / Fold change in kcat/KM: substrate Aβ 1–40; for Km / kcat: 37°C, pH 7.4; for Fold change in kcat/KM: ratio of wild-type NEP kcat/KM to that of the mutant; for increase in kcat/KM (catalytic efficiency) on Aβ1–40 over wild-type NEP: substrate Aβ1–40, relative to wild-type NEP. On the procedure: as §1

Another data set concerns Neurotensin. The data set is described as above. The note with it: substrate Neurotensin; for Km / kcat: 37°C, pH 7.4; for Fold change in kcat/KM: ratio of wild-type NEP kcat/KM to that of the mutant. On the procedure:
as §1

For a further data set, the system named is Glucagon. The data set is described as above. The note with it: substrate Glucagon; for Km / kcat: 37°C, pH 7.4; for Fold change in kcat/KM: ratio of wild-type NEP kcat/KM to that of the mutant. On the procedure:
as §1

In another data set the test system is Bradykinin. Described as above. The note with it: substrate Bradykinin; for Km / kcat: 37°C, pH 7.4; for Fold change in kcat/KM: ratio of wild-type NEP kcat/KM to that of the mutant. The method, then:
as §1

B1: NEP G714K: single mutant G714K of the human NEP ectodomain (protein, UniProt P08473 52-750, looked up, variant G714K)
extracellular domain: YDDGICKSSDCIKSAARLIQNMDATTEPCTDFFKYACGGWLKRNVIPETSSRYGNFDILRDELEVVLKDVLQEPKTEDIVAVQKAKALYRSCINESAIDSRGGEPLLKLLPDIYGWPVATENWEQKYGASWTAEKAIAQLNSKYGKKVLINLFVGTDDKNSVNHVIHIDQPRLGLPSRDYYECTGIYKEACTAYVDFMISVARLIRQEERLPIDENQLALEMNKVMELEKEIANATAKPEDRNDPMLLYNKMTLAQIQNNFSLEINGKPFSWLNFTNEIMSTVNISITNEEDVVVYAPEYLTKLKPILTKYSARDLQNLMSWRFIMDLVSSLSRTYKESRNAFRKALYGTTSETATWRRCANYVNGNMENAVGRLYVEAAFAGESKHVVEDLIAQIREVFIQTLDDLTWMDAETKKRAEEKALAIKERIGYPDDIVSNDNKLNNEYLELNYKEDEYFENIIQNLKFSQSKQLKKLREKVDKDEWISGAAVVNAFYSSGRNQIVFPAGILQPPFFSAQQSNSLNYGGIGMVIGHEITHGFDDNGRNFNKDGDLVDWWTQQSASNFKEQSQCMVYQYGNFSWDLAGGQHLNGINTLGENIADNGGLGQAYRAYQNYIKKNGEEKLLPGLDLNHKQLFFLNFAQVWCGTYRPEYAVNSIKTDVHSPKNFRIIGTLQNSAEFSEAFHCRKNSYMNPEKKCRVW
modifications: extracellular domain
notes: single mutant G714K of the human NEP ectodomain
Consider B1, for which the improvement in specificity entry in data set [1] (activity on Aβ1–40 relative to other peptides) was “approximately 12 fold”. Further, the “improvement in activity on Aβ” value in data set [1] was around 7 fold. Besides, the Km in the data set with Angiotensin came to 18 ± 1 µM; in the data set on Aβ1–40 it was 42 ± 0.7 µM; in the data set with Neurotensin it was 10 ± 0.7 µM; in the data set on Glucagon, 42 ± 5 µM; in the data set with Bradykinin it was 120 ± 8 µM. Besides, the kcat amounted to 12 ± 0.3 s⁻¹ in the data set with Angiotensin; 1.9 ± 0.2 s⁻¹ in the data set on Aβ1–40; 8.6 ± 0.2 s⁻¹ in the data set with Neurotensin; 5.2 ± 0.3 s⁻¹ with Glucagon; 7.4 ± 0.3 s⁻¹ with Bradykinin. In addition, the “Fold change in kcat/KM” value with Angiotensin is 1.5; in the data set on Aβ1–40, 0.18; in the data set with Neurotensin, 0.98; in the data set with Glucagon, 1.5; in the data set on Bradykinin it was 7.5. Moreover, the “increase in kcat/KM (catalytic efficiency) on Aβ1–40 over wild-type NEP” value with Aβ1–40 is on record as around 6 fold.

B2: NEP G399V: single mutant G399V of the human NEP ectodomain (protein, UniProt P08473 52-750, looked up, variant G399V)
extracellular domain: B1 extracellular domain with G349V, K664G
modifications: extracellular domain
notes: single mutant G399V of the human NEP ectodomain
For B2, the Km in the data set on Angiotensin worked out at 3.6 ± 0.4 µM; with Aβ1–40 it was 55 ± 7 µM; in the data set with Neurotensin, 12 ± 1 µM; with Glucagon, 20 ± 2 µM; in the data set with Bradykinin it was 79 ± 10 µM. Besides, the kcat amounted to 0.73 ± 0.03 s⁻¹ in the data set with Angiotensin; 2.7 ± 0.2 s⁻¹ in the data set on Aβ1–40; 1.1 ± 0.04 s⁻¹ with Neurotensin; 2.9 ± 0.1 s⁻¹ with Glucagon; 0.15 ± 0.01 s⁻¹ in the data set with Bradykinin. Besides, the “Fold change in kcat/KM” value amounted to 4.6 with Angiotensin; 0.16 in the data set with Aβ1–40; 8.2 in the data set with Neurotensin; 1.2 in the data set on Glucagon; 250 in the data set on Bradykinin. Moreover, the “increase in kcat/KM (catalytic efficiency) on Aβ1–40 over wild-type NEP” value with Aβ1–40 is given as around 6 fold.

The values above are taken from PMC4121237, “Engineering Neprilysin Activity and Specificity to Create a Novel Therapeutic for Alzheimer’s Disease” (PLoS ONE, 2014).
